One block for each binder: values may come before it.
What was measured:
mouse IL-5 [1] = target: T1, mouse IL-5 (mouse, UniProt P04401 21-133); assay: cell-based or functional assay
T1 sequence (looked up): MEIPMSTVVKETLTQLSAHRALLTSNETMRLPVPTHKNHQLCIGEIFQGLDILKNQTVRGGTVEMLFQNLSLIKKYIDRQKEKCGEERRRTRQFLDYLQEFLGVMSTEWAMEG

mouse IL-5 [2] = target: T1, mouse IL-5; assay: cell-based or functional assay; remark: listed apart in the source
[3] = target: T2, recombinant mouse IL-4Rα-Fc (mouse, UniProt P16382 26-233); assay: SPR, IL-4Rα-Fc coated, antibody as 1st injection
T2 construct: Bought reagent; also called coated IL-4Rα; injected IL-4Rα; not shown: Fc part
T2 sequence (looked up): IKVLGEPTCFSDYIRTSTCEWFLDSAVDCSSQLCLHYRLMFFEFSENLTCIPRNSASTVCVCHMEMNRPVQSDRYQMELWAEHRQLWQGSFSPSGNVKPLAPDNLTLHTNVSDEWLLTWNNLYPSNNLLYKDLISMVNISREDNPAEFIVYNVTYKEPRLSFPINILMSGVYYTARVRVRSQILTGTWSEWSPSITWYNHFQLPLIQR
Experimental: (§1) The experiment was also performed in reverse order and confirmed the bispecific nature of the molecule as depicted in FIG. 13B.

mouse IL-5 [4] = target: T1, mouse IL-5; assay: SPR, mAb (0-20 µg/mL) over immobilised target; immobilized IL-5 target; IL-5 mAb in solution
[5] = target: T3, mouse IL-4Rα on cells (HT-2 cells, purified mouse B cells) (mouse, UniProt P16382 26-810); assay: cell-based or functional assay
T3 sequence (looked up): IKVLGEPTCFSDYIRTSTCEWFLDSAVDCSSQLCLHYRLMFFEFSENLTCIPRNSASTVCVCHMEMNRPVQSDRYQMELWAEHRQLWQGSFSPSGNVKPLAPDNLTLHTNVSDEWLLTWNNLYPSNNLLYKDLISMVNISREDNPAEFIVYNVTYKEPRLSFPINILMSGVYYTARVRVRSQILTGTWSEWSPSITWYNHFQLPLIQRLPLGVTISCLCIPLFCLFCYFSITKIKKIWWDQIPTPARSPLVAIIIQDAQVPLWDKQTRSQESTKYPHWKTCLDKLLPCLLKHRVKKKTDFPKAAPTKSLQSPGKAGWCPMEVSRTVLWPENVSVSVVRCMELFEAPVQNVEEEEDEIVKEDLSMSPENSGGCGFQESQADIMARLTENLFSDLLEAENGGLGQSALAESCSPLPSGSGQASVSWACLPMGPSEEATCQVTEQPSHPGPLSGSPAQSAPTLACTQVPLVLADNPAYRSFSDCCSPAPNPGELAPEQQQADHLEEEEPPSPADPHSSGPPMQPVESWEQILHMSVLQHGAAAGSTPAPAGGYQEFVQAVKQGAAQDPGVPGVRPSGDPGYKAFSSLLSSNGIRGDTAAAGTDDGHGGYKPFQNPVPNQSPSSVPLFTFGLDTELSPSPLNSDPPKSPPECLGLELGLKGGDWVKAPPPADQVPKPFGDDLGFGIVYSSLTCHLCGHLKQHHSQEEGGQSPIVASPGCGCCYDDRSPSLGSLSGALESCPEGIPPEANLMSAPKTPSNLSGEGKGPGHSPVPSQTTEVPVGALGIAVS

[6] = target: T4, mouse IL-4Rα (SPR target of Example 2) (mouse, UniProt P16382 26-233, limits assumed); assay: SPR, mAb (0-20 µg/mL) over immobilised target; immobilized IL-4Rα target; IL-4Rα mAb in solution
T4 construct: also called immobilized target IL-4Rα
T4 sequence (looked up): T2 sequence (looked up)

mouse IL-5 [7] = target: T1, mouse IL-5; assay: SPR sandwich: IL-4Rα-Fc coated, anti-IL-4Rα Ab as 1st injection, IL-5 as 2nd injection
Experimental: as §1

mouse IL-5 [8] = target: T1, mouse IL-5; assay: SPR, IL-5 coated, antibody as 1st injection
Experimental: as §1

[9] = target: T2, recombinant mouse IL-4Rα-Fc; assay: SPR sandwich: IL-5 coated, bispecific as 1st injection, IL-4Rα-Fc as 2nd injection
Experimental: as §1

- EC50, inhibition of mouse IL-5-induced proliferation of TF-1 cells (mouse IL-5 [1]): 0.6 nM
- EC50 (nM), inhibition of mIL-5-induced (0.25 ng/mL) proliferation of TF-1 cells (mouse IL-5 [2]): 1.75 nM
- binding result [3]: no binding
- Kd (mouse IL-5 [4]): 0.002 nM
B1: m5MP95G7 IL-5 monospecific antibody (mouse IgG2a) (antibody, V domains shown)
VH: ELQVVESGGGLVQPGGSLRLSCAASGFTFSSYGMSWVRQAPGKGLEWVSTISRGGDSTSYADSVKGRFTISKDNAKNTLYLQMNSLEPEDTAVYYCANLGRLGFGRGQGTQVTVSS
VL: SYELTQPPSVSGSPGKTLTISCAGTSSDIGDWNYVSWFQQLPGTAPKLLISEVNKRASGIPDRFSGSKSGNTASLSISGLQSEDEADYYCTSYRSGNNWVFGGGTHLTVL
notes: also called IL-5 mAb; IL-5 monospecific Ab

- EC50, inhibition of mouse IL-4-induced proliferation of HT-2 cells [5]: 0.2 nM
- Kd [6]: 0.08 nM
- binding result (mouse IL-5 [7]): no binding
B2: m4RMP36B7 IL-4Rα monospecific antibody (mouse IgG2a) (antibody, V domains shown)
VH: EVQLVESGGGLVQPGGSLRVSCAASGFTFSSYYMAWVRQAPGKGLEWVSHIHAGGSLTQYADSVKGRFTISRDNAKSTLYLQMNSLKPEDTALYYCVRIYGDATSYDYWGQGTQVSVSS
VL: HSAVTQPPSVSGSPGKTVTISCAGTSSDIGGYNYVSWYQQFPGTAPKLLIYEVNKRASGIPDRFSGSKSGNTASLSISGLQSEDEADYYCASYRSNNNIVFGGGTHLTVL
notes: also called IL-4Rα mAb; IL-4Rα monospecific Ab

- binding result (mouse IL-5 [8]): binds
- binding result [9]: binds
B3: IL-4Rα/IL-5 bispecific antibody (knob-into-hole, mouse IgG2a; 4RMP36B7 arm and 5MP95G7 arm) (bispecific antibody, V domains shown)
VH 1: B2 VH
VL 1: B2 VL
VH 2: B1 VH
VL 2: B1 VL
notes: Murine Fc: the 4RMP36B7 heavy chain carries T366S, L368A and Y407V in CH3, the 5MP95G7 heavy chain carries T366W; also called IL-4Rα/IL-5 bispecific Ab; bispecific Ab
